# In US20220389118A1 (Chugai, published 2022):
# Substitutions are numbered along the chain they refer to. In names and notes the source's numbering stands.
# B1: IL6R-BP544/IL6R-L (antibody, human IgG1, kappa)
# heavy: QVQLQESGPGLVKPSETLSLTCAVSGHSISHDHAWSWVRQPPGEGLEWIGFISYSGITNYNPSLQGRVTISRDNSKNTLYLQMNSLRAEDTAVYYCARSLARTTAMDYWGEGTLVTVSSASTKGPSVFPLAPSSKSTSGGTAALGCLVKDYFPEPVTVSWNSGALTSGVHTFPAVLQSSGLYSLSSVVTVPSSSLGTQTYICNVNHKPSNTKVDKKVEPKSCDKTHTCPPCPAPDLLGDDSVFLFPPKPKDTLMISRTPEVTCVVVDVSDEDGEVKFNWYVDGVEVHNAKTKPREEQDNSTYRVVSVLTVLHQDWLNGKEYKCKVSNKALPRPIEKTISKAKGQPREPQVYTLPPSQDELTKNQVSLTCLVKGFYPSDIAVEWESNGQPENNYKTTPPVLDSDGSFFLYSKLTVDKSRWQQGNVFSCSVMHEALHNHYTQESLSLSP
# light: not shown
# notes: R355Q introduced into IL6R-BP230; copies: 2 + 2
# B2: IL6R-BP546/IL6R-L (antibody, human IgG1, kappa)
# heavy: B1 heavy with Q357R, L360M
# light: not shown
# notes: L358M introduced into IL6R-BP230; copies: 2 + 2
# B3: IL6R-BP543/IL6R-L (antibody, human IgG1, kappa)
# heavy: B1 heavy with D270Q, Q357R
# light: not shown
# notes: H268Q introduced into IL6R-BP230 (takes the place of H268D); copies: 2 + 2
# B4: IL6R-BP541/IL6R-L (antibody, human IgG1, kappa)
# heavy: B1 heavy with K276Q, Q357R
# light: not shown
# notes: K274Q introduced into IL6R-BP230; copies: 2 + 2
# B5: IL6R-BP548/IL6R-L (antibody, human IgG1, kappa)
# heavy: B1 heavy with Q357R, Q421E
# light: not shown
# notes: Q419E introduced into IL6R-BP230; copies: 2 + 2
# B6: IL6R-BP201/IL6R-L (antibody, human IgG1, kappa)
# heavy: B1 heavy with D270H, D298Y, Q357R
# light: not shown
# notes: copies: 2 + 2
# B7: IL6R-BP209/IL6R-L (antibody, human IgG1, kappa)
# heavy: B1 heavy with D235E, D298Y, K328A, Q357R
# light: not shown
# notes: copies: 2 + 2
# B8: IL6R-BP185/IL6R-L (antibody, human IgG1, kappa)
# heavy: B1 heavy with L236Y, D270H, D298Y, K328A, R332K, Q357R
# light: not shown
# notes: copies: 2 + 2
# B9: IL6R-BP195/IL6R-L (antibody, human IgG1, kappa)
# heavy: B1 heavy with L236Y, K328A, R332K, Q357R
# light: not shown
# notes: copies: 2 + 2
# B10: IL6R-BP208/IL6R-L (antibody, human IgG1, kappa)
# heavy: B1 heavy with D298Y, Q357R
# light: not shown
# notes: copies: 2 + 2
# B11: IL6R-BP184/IL6R-L (antibody, human IgG1, kappa)
# heavy: B1 heavy with D239G, D270H, D298Y, R332K, Q357R
# light: not shown
# notes: copies: 2 + 2
# B12: IL6R-BP202/IL6R-L (antibody, human IgG1, kappa)
# heavy: B1 heavy with D235E, D270H, D298Y, K328A, Q357R
# light: not shown
# notes: copies: 2 + 2
# B13: IL6R-BP423/IL6R-L (antibody, human IgG1, kappa)
# heavy: B1 heavy with S269A, D270E, D298Y, Q357R
# light: not shown
# notes: alterations counted against IL6R-B3; copies: 2 + 2
# B14: IL6R-BP451/IL6R-L (antibody, human IgG1, kappa)
# heavy: B1 heavy with S269A, D270E, D298Y, Q357R, P398G
# light: not shown
# notes: P396G introduced into IL6R-BP423; copies: 2 + 2
# B15: IL6R-BP545/IL6R-L (antibody, human IgG1, kappa)
# heavy: B1 heavy with Q357R, D358E
# light: not shown
# notes: D356E introduced into IL6R-BP230; copies: 2 + 2
# B16: IL6R-BP230/IL6R-L (antibody, human IgG1, kappa)
# heavy: B1 heavy with Q357R
# light: not shown
# notes: copies: 2 + 2
# B17: IL6R-BP547/IL6R-L (antibody, human IgG1, kappa)
# heavy: B1 heavy with Q357R, K411R
# light: not shown
# notes: K409R introduced into IL6R-BP230; copies: 2 + 2
# B18: IL6R-BP089/IL6R-L (antibody, human IgG1, kappa)
# heavy: B1 heavy with D235E, L236Y, D239G, D270H, G273P, D298Y, K328A, R332K, Q357R
# light: not shown
# notes: EU numbering; alterations on IL6R-B3; copies: 2 + 2
# B19: IL6R-BP129/IL6R-L (antibody, human IgG1, kappa)
# heavy: B1 heavy with D239G, D270H, G273P, R332K, Q357R
# light: not shown
# notes: as for B18
# B20: IL6R-BP176/IL6R-L (antibody, human IgG1, kappa)
# heavy: B1 heavy with D239G, D270H, G273P, D298Y, K328D, R332K, Q357R
# light: not shown
# notes: as for B18
# B21: IL6R-BP233/IL6R-L (antibody, human IgG1, kappa)
# heavy: B1 heavy with D235E, L236Y, D270H, D298Y, R332K, Q357R
# light: not shown
# notes: copies: 2 + 2
# B22: IL6R-BP220/IL6R-L (antibody, human IgG1, kappa)
# heavy: B1 heavy with R332K, Q357R
# light: not shown
# notes: copies: 2 + 2
# B23: IL6R-BP246/IL6R-L (antibody, human IgG1, kappa)
# heavy: B1 heavy with S269Q, K328A, Q357R
# light: not shown
# notes: copies: 2 + 2
# B24: IL6R-BP249/IL6R-L (antibody, human IgG1, kappa)
# heavy: B1 heavy with L236Y, Q357R
# light: not shown
# notes: copies: 2 + 2
# B25: IL6R-BP561/IL6R-L (antibody, human IgG1, kappa)
# heavy: B1 heavy with E274D, Q357R
# light: not shown
# notes: copies: 2 + 2
# Molecular target: T1, human FcγRIIb extracellular domain with C-terminal His tag (human, UniProt P31994 43-217)
# T1 construct: extracellular domain; not shown: His tag at the C terminus
# T1 sequence (looked up): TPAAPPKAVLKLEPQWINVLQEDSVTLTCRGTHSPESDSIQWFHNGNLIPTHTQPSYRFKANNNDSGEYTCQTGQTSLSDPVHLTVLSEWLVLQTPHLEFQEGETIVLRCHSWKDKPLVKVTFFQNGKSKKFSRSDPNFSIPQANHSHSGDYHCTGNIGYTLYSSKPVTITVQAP
# Assay: SPR (Biacore); KD for FcγRIIaR divided by KD for FcγRIIb
row,KD(IIaR)/KD(IIb),Binder
1,28.8,B1
2,32.8,B2
3,27.3,B3
4,27.8,B4
5,26.2,B5

# Molecular target: T2, human FcγRIIb extracellular domain with C-terminal His tag (human, UniProt P31994 43-217)
# T2 construct: extracellular domain; not shown: His tag at the C terminus
# T2 sequence (looked up): T1 sequence (looked up)
# Assay: SPR (Biacore), antibody captured, FcγR analyte
row,Kd [nM],Binder
1,40,B6
2,51,B7
3,69,B8
4,50,B9

# Molecular target: T3, human FcγRIIIa type V (allotype V158) extracellular domain with C-terminal His tag (human, UniProt P08637 17-208)
# T3 construct: extracellular domain; also called FcγRIIIaV; FcγRIIIa V type; not shown: His tag at the C terminus
# T3 sequence (P08637 17-208 F176V): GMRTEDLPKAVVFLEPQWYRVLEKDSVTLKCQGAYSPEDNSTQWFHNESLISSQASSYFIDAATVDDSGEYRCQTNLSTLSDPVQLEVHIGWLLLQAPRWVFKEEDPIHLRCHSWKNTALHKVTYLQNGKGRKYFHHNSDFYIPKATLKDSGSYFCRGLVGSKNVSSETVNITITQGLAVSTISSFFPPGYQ
# Assay: SPR (Biacore), antibody captured, FcγR analyte
row,Kd [nM],Binder
1,53000,B10
2,66000,B11
3,41000,B7
4,36000,B8
5,31000,B9

# Molecular target: T4, human FcγRIIa type R (allotype R131) extracellular domain with C-terminal His tag (human, UniProt P12318 34-217)
# T4 construct: extracellular domain; also called FcγRIIaR; FcγRIIa R type; not shown: His tag at the C terminus
# T4 sequence (looked up): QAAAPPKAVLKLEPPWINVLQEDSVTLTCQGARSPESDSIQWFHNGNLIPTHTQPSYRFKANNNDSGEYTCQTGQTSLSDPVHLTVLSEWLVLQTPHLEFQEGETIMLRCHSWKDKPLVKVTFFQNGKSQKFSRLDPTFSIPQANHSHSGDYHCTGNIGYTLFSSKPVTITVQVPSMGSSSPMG
# Assay: SPR (Biacore), antibody captured, FcγR analyte
row,Kd [nM],Binder
1,850,B10
2,2300,B11
3,840,B6
4,880,B8
5,910,B9

# Molecular target: T5, human FcγRIIa type H (allotype H131) extracellular domain with C-terminal His tag (human, UniProt P12318 34-217)
# T5 construct: extracellular domain; also called FcγRIIaH; FcγRIIa H type; not shown: His tag at the C terminus
# T5 sequence (looked up): T4 sequence (looked up) with R134H
# Assay: SPR (Biacore), antibody captured, FcγR analyte
row,Kd [nM],Binder
1,8300,B10
2,30000,B11
3,9200,B12
4,10000,B7
5,10000,B9

# Molecular target: T6, human FcγRIa extracellular domain with C-terminal His tag (human, UniProt P12314 16-292)
# T6 construct: not shown: His tag at the C terminus
# Assay: SPR (Biacore), antibody captured, FcγR analyte
# T6 sequence (P12314 16-292): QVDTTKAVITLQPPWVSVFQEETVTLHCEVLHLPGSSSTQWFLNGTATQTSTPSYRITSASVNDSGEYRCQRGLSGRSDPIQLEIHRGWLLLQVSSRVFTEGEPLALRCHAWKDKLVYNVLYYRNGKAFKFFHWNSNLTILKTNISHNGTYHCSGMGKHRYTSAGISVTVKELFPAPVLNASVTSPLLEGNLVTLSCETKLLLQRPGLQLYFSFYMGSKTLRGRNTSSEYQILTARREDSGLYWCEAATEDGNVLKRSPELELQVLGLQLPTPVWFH
row,Kd [nM],Binder
1,95,B12
2,39,B7

# Molecular target: T7, human FcγRIIa type H (H131) extracellular domain with C-terminal His tag (human, UniProt P12318 34-217)
# T7 construct: extracellular domain; also called FcγRIIaH; not shown: His tag at the C terminus
# T7 sequence (looked up): T4 sequence (looked up) with R134H
# Assay: SPR (Biacore), antibody captured, FcγR analyte
row,Kd [nM],Binder
1,2000,B13
2,2000,B14

# Molecular target: T1, human FcγRIIb extracellular domain with …
# Assay: SPR (Biacore), antibody captured, FcγR analyte
row,Kd [nM],Binder
1,17,B1
2,15,B2
3,17,B15
4,20,B3
5,18,B16
6,16,B4
7,19,B17
8,19,B5

# Molecular target: T8, human FcγRIa extracellular domain with C-terminal His tag (human, UniProt P12314 16-292)
# T8 construct: not shown: His tag at the C terminus
# Assay: SPR (Biacore), antibody captured, FcγR analyte
# T8 sequence (P12314 16-292): as above
row,Kd [nM],Binder
1,9.8,B1
2,9,B2
3,23,B3
4,10,B16
5,11,B4
6,12,B17
7,12,B5

# Molecular target: T9, human FcγRIIa type R (R131) extracellular domain with C-terminal His tag (human, UniProt P12318 34-217)
# T9 construct: extracellular domain; also called FcγRIIaR; not shown: His tag at the C terminus
# T9 sequence (looked up): T4 sequence (looked up)
# Assay: SPR (Biacore), antibody captured, FcγR analyte
row,Kd [nM],Binder
1,480,B1
2,500,B2
3,570,B15
4,560,B3
5,450,B4
6,500,B5

# Molecular target: T10, human FcγRIIa type H extracellular domain with C-terminal His tag (human, UniProt P12318 34-217)
# T10 construct: extracellular domain; also called FcγRIIaH; FcgRIIaH
# T10 sequence (looked up): T4 sequence (looked up) with R134H
# Assay: SPR (Biacore)
row,Kd [nM],Binder
1,20000,B18
2,40000,B19
3,30000,B20

# Molecular target: T6, human FcγRIa extracellular domain with …
# Assay: SPR (Biacore), antibody captured, FcγR analyte
# Remark: another data set of the same source
row,Kd [nM],Binder
1,70,B21
2,20,B22
3,8,B23
4,7,B24

# Molecular target: T11, human FcγRIa extracellular domain (human, UniProt P12314 16-292)
# T11 construct: also called CD64; not shown: His tag at the C terminus
# T11 sequence (P12314 16-292): as above
# Assay: SPR (Biacore), antibody captured on chip, FcγR extracellular domain as analyte, 25 C
row,Kd [nM],Binder
1,9.4,B25

# Molecular target: T12, human FcγRIIa type R extracellular domain (human, UniProt P12318 34-217)
# T12 construct: also called FcγRIIaR; FcγRIIa(R); not shown: His tag at the C terminus
# T12 chain: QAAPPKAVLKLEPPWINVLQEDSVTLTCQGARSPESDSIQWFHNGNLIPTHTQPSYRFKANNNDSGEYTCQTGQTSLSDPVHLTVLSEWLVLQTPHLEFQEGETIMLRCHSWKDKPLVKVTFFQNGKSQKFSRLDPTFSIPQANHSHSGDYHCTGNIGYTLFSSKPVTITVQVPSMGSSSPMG
# Assay: as above
row,Kd [nM],Binder
1,510,B25

# Molecular target: T13, human FcγRIIb extracellular domain (human, UniProt P31994 43-217)
# T13 construct: also called FcγIIB; not shown: His tag at the C terminus
# T13 sequence: T1 sequence (looked up)
# Assay: as above
row,Kd [nM],Binder
1,18,B25

# Molecular target: T1, human FcγRIIb extracellular domain with …
# Assay: SPR (Biacore); KD of IL6R-B3/IL6R-L divided by KD of this antibody
row,KD(IIb) of parent polypeptide/KD(IIb) of altered polypeptide,Binder
1,184,B1
2,205,B2
3,152,B3
4,190,B4
5,162,B5

# Molecular target: T9, human FcγRIIa type R (R131) …
# Assay: as above
row,KD(IIaR) of parent polypeptide/KD(IIaR) of altered polypeptide,Binder
1,2.2,B1
2,2.2,B2
3,1.9,B3
4,2.4,B4
5,2.2,B5
